The text below walks through data of patent publication US20180201681A1.

In test [1] the target is human CD83 on the cell surface (KM-H2, L428, FDCP1 and BB88 cells transfected with full length human CD83) (human) (UniProt Q01151). Kind of test: flow cytometry on the CD83+ cell line KM-H2, background control. A general note: Flow cytometry measures light scatter and fluorescence of single cells or particles in a stream.
Test [2] has the same target. Kind of test: competition by flow cytometry on KM-H2 cells, antibodies added at the same time; reduction of the 3C12-RPE signal in the presence of HB15a-FITC.

Sequence of human CD83 on the cell surface (KM-H2, L428, FDCP1 and BB88 cells transfected with full length human CD83) (human) (Q01151 20-205): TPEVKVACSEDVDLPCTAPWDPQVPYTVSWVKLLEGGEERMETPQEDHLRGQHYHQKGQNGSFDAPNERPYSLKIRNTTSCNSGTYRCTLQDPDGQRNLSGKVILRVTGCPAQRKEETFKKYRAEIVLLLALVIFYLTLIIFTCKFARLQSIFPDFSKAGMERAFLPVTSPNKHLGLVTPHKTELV

On to isotype control (human IgG1) (antibody), for which, in test [1], the MFI is 335 MFI.
In the case of “HB15a (commercial anti-human CD83 mAb, Immunotech) (antibody)”, the Reduction in 3C12 MFI (%) in test [2] came out at 24.7%.
